Results taken from US20060263802A1 (CRUCELL HOLLAND B V, published 2006).

Tests used:
Experiment in all cases: PEPSCAN ELISA, looped 15-mer, 10 ug/ml
[1] = molecular target: looped peptide … (rabies virus strain ERA)
[2] = molecular target: looped peptide … (rabies virus strain ERA); remark: listed apart in the source
[3] = molecular target: looped peptide … (rabies virus strain ERA); remark: listed apart in the source
[4] = molecular target: looped peptide … (rabies virus strain ERA); remark: listed apart in the source
[5] = molecular target: looped peptide … (rabies virus strain ERA); remark: listed apart in the source
[6] = molecular target: looped peptide … (rabies virus strain ERA); remark: listed apart in the source
[7] = molecular target: looped peptide … (rabies virus strain ERA); remark: listed apart in the source
[8] = molecular target: looped peptide … (rabies virus strain ERA); remark: listed apart in the source
[9] = molecular target: looped peptide … (rabies virus strain ERA); remark: listed apart in the source
[10] = molecular target: looped peptide … (rabies virus strain ERA); remark: listed apart in the source
[11] = molecular target: looped peptide … (rabies virus strain ERA); remark: listed apart in the source
[12] = molecular target: looped peptide … (rabies virus strain ERA); remark: listed apart in the source
[13] = molecular target: looped peptide … (rabies virus strain ERA); remark: listed apart in the source
[14] = molecular target: looped peptide … (rabies virus strain ERA); remark: listed apart in the source
[15] = molecular target: looped peptide … (rabies virus strain ERA); remark: listed apart in the source
[16] = molecular target: looped peptide … (rabies virus strain ERA); remark: listed apart in the source
[17] = molecular target: looped peptide … (rabies virus strain ERA); remark: listed apart in the source
[18] = molecular target: looped peptide … (rabies virus strain ERA); remark: listed apart in the source
[19] = molecular target: looped peptide … (rabies virus strain ERA); remark: listed apart in the source
[20] = molecular target: looped peptide … (rabies virus strain ERA); remark: listed apart in the source
[21] = molecular target: looped peptide … (rabies virus strain ERA); remark: listed apart in the source
[22] = molecular target: looped peptide … (rabies virus strain ERA); remark: listed apart in the source
[23] = molecular target: looped peptide … (rabies virus strain ERA); remark: listed apart in the source
[24] = molecular target: looped peptide … (rabies virus strain ERA); remark: listed apart in the source
[25] = molecular target: looped peptide … (rabies virus strain ERA); remark: listed apart in the source
[26] = molecular target: looped peptide … (rabies virus strain ERA); remark: listed apart in the source
[27] = molecular target: looped peptide … (rabies virus strain ERA); remark: listed apart in the source
[28] = molecular target: looped peptide … (rabies virus strain ERA); remark: listed apart in the source
[29] = molecular target: looped peptide … (rabies virus strain ERA); remark: listed apart in the source
[30] = molecular target: looped peptide … (rabies virus strain ERA); remark: listed apart in the source
[31] = molecular target: looped peptide … (rabies virus strain ERA); remark: listed apart in the source
[32] = molecular target: looped peptide … (rabies virus strain ERA); remark: listed apart in the source
[33] = molecular target: looped peptide … (rabies virus strain ERA); remark: listed apart in the source
[34] = molecular target: looped peptide … (rabies virus strain ERA); remark: listed apart in the source
[35] = molecular target: looped peptide … (rabies virus strain ERA); remark: listed apart in the source
[36] = molecular target: looped peptide … (rabies virus strain ERA); remark: listed apart in the source
[37] = molecular target: looped peptide … (rabies virus strain ERA); remark: listed apart in the source
[38] = molecular target: looped peptide … (rabies virus strain ERA); remark: listed apart in the source
[39] = molecular target: looped peptide … (rabies virus strain ERA); remark: listed apart in the source
[40] = molecular target: looped peptide … (rabies virus strain ERA); remark: listed apart in the source
[41] = molecular target: looped peptide … (rabies virus strain ERA); remark: listed apart in the source
[42] = molecular target: looped peptide … (rabies virus strain ERA); remark: listed apart in the source
[43] = molecular target: looped peptide … (rabies virus strain ERA); remark: listed apart in the source
[44] = molecular target: looped peptide … (rabies virus strain ERA); remark: listed apart in the source
[45] = molecular target: looped peptide … (rabies virus strain ERA); remark: listed apart in the source
[46] = molecular target: looped peptide … (rabies virus strain ERA); remark: listed apart in the source
[47] = molecular target: looped peptide … (rabies virus strain ERA); remark: listed apart in the source
[48] = molecular target: looped peptide … (rabies virus strain ERA); remark: listed apart in the source
[49] = molecular target: looped peptide … (rabies virus strain ERA); remark: listed apart in the source
[50] = molecular target: looped peptide … (rabies virus strain ERA); remark: listed apart in the source
[51] = molecular target: looped peptide … (rabies virus strain ERA); remark: listed apart in the source
[52] = molecular target: looped peptide … (rabies virus strain ERA); remark: listed apart in the source
[53] = molecular target: looped peptide … (rabies virus strain ERA); remark: listed apart in the source
[54] = molecular target: looped peptide … (rabies virus strain ERA); remark: listed apart in the source
[55] = molecular target: looped peptide … (rabies virus strain ERA); remark: listed apart in the source
[56] = molecular target: looped peptide … (rabies virus strain ERA); remark: listed apart in the source
[57] = molecular target: looped peptide … (rabies virus strain ERA); remark: listed apart in the source
[58] = molecular target: looped peptide … (rabies virus strain ERA); remark: listed apart in the source
[59] = molecular target: looped peptide … (rabies virus strain ERA); remark: listed apart in the source
[60] = molecular target: looped peptide … (rabies virus strain ERA); remark: listed apart in the source
[61] = molecular target: looped peptide … (rabies virus strain ERA); remark: listed apart in the source
[62] = molecular target: looped peptide … (rabies virus strain ERA); remark: listed apart in the source
[63] = molecular target: looped peptide … (rabies virus strain ERA); remark: listed apart in the source
[64] = molecular target: looped peptide … (rabies virus strain ERA); remark: listed apart in the source
[65] = molecular target: looped peptide … (rabies virus strain ERA); remark: listed apart in the source
[66] = molecular target: looped peptide … (rabies virus strain ERA); remark: listed apart in the source
[67] = molecular target: looped peptide … (rabies virus strain ERA); remark: listed apart in the source
[68] = molecular target: looped peptide … (rabies virus strain ERA); remark: listed apart in the source
[69] = molecular target: looped peptide … (rabies virus strain ERA); remark: listed apart in the source
[70] = molecular target: looped peptide … (rabies virus strain ERA); remark: listed apart in the source
[71] = molecular target: looped peptide … (rabies virus strain ERA); remark: listed apart in the source
[72] = molecular target: looped peptide … (rabies virus strain ERA); remark: listed apart in the source
[73] = molecular target: looped peptide … (rabies virus strain ERA); remark: listed apart in the source
[74] = molecular target: looped peptide … (rabies virus strain ERA); remark: listed apart in the source
[75] = molecular target: looped peptide … (rabies virus strain ERA); remark: listed apart in the source
[76] = molecular target: looped peptide … (rabies virus strain ERA); remark: listed apart in the source
[77] = molecular target: looped peptide … (rabies virus strain ERA); remark: listed apart in the source
[78] = molecular target: looped peptide … (rabies virus strain ERA); remark: listed apart in the source
[79] = molecular target: looped peptide … (rabies virus strain ERA); remark: listed apart in the source
[80] = molecular target: looped peptide … (rabies virus strain ERA); remark: listed apart in the source
[81] = molecular target: looped peptide … (rabies virus strain ERA); remark: listed apart in the source
[82] = molecular target: looped peptide … (rabies virus strain ERA); remark: listed apart in the source
[83] = molecular target: looped peptide … (rabies virus strain ERA); remark: listed apart in the source
[84] = molecular target: looped peptide … (rabies virus strain ERA); remark: listed apart in the source
[85] = molecular target: looped peptide … (rabies virus strain ERA); remark: listed apart in the source
[86] = molecular target: looped peptide … (rabies virus strain ERA); remark: listed apart in the source
[87] = molecular target: looped peptide … (rabies virus strain ERA); remark: listed apart in the source
[88] = molecular target: looped peptide … (rabies virus strain ERA); remark: listed apart in the source
[89] = molecular target: looped peptide … (rabies virus strain ERA); remark: listed apart in the source
[90] = molecular target: looped peptide … (rabies virus strain ERA); remark: listed apart in the source
[91] = molecular target: looped peptide … (rabies virus strain ERA); remark: listed apart in the source
[92] = molecular target: looped peptide … (rabies virus strain ERA); remark: listed apart in the source
[93] = molecular target: looped peptide … (rabies virus strain ERA); remark: listed apart in the source
[94] = molecular target: looped peptide … (rabies virus strain ERA); remark: listed apart in the source
[95] = molecular target: looped peptide … (rabies virus strain ERA); remark: listed apart in the source
[96] = molecular target: looped peptide … (rabies virus strain ERA); remark: listed apart in the source
[97] = molecular target: looped peptide … (rabies virus strain ERA); remark: listed apart in the source
[98] = molecular target: looped peptide … (rabies virus strain ERA); remark: listed apart in the source

B1: human monoclonal antibody CRJA (antibody, V domains shown)
VH: EVQLLESGGGLVQPGGSLRLSCAASGFTFSNYAMSWVRQAPGKGLEWVSAISASGHSTYLADSVKGRFTISRDNSKNTLYLQMNSLRAEDTAVYYCAKDREVTMIVVLNGGFDYWGQGTRVTVSS
VL: EIVLTQSPATLSLSPGERATLACRASQTASRYLAWYQQKPGQAPRLLIYDTSNRATGIPARFSGSGSGTDFTLSISSLEPEDFAVYYCQQRFNWPWTFGQGTKVEFK
OD value [1]: 125 | OD value [2]: 118 | OD value [3]: 113 | OD value [4]: 92 | OD value [5]: 46 | OD value [6]: 66 | OD value [7]: 78 | OD value [8]: 93 | OD value [9]: 84 | OD value [10]: 86 | OD value [11]: 90 | OD value [12]: 93 | OD value [13]: 94 | OD value [14]: 94 | OD value [15]: 93 | OD value [16]: 112 | OD value [17]: 93 | OD value [18]: 110 | OD value [19]: 50 | OD value [20]: 59 | OD value [21]: 69 | OD value [22]: 104 | OD value [23]: 98 | OD value [24]: 90 | OD value [25]: 129 | OD value [26]: 100 | OD value [27]: 92 | OD value [28]: 105 | OD value [29]: 110 | OD value [30]: 123 | OD value [31]: 90 | OD value [32]: 110 | OD value [33]: 108 | OD value [34]: 96 | OD value [35]: 49 | OD value [36]: 72 | OD value [37]: 79 | OD value [38]: 88 | OD value [39]: 98 | OD value [40]: 88 | OD value [41]: 96 | OD value [42]: 88 | OD value [43]: 90 | OD value [44]: 90 | OD value [45]: 41 | OD value [46]: 51 | OD value [47]: 72 | OD value [48]: 86 | OD value [49]: 83 | OD value [50]: 113 | OD value [51]: 96 | OD value [52]: 110 | OD value [53]: 104 | OD value [54]: 51 | OD value [55]: 92 | OD value [56]: 49 | OD value [57]: 57 | OD value [58]: 88 | OD value [59]: 88 | OD value [60]: 104 | OD value [61]: 71 | OD value [62]: 82 | OD value [63]: 43 | OD value [64]: 93 | OD value [65]: 100 | OD value [66]: 120 | OD value [67]: 71 | OD value [68]: 64 | OD value [69]: 56 | OD value [70]: 75 | OD value [71]: 100 | OD value [72]: 55 | OD value [73]: 90 | OD value [74]: 87 | OD value [75]: 92 | OD value [76]: 96 | OD value [77]: 104 | OD value [78]: 113 | OD value [79]: 100 | OD value [80]: 71 | OD value [81]: 80 | OD value [82]: 113 | OD value [83]: 73 | OD value [84]: 104 | OD value [85]: 108 | OD value [86]: 100 | OD value [87]: 92 | OD value [88]: 82 | OD value [89]: 92 | OD value [90]: 90 | OD value [91]: 45 | OD value [92]: 62 | OD value [93]: 84 | OD value [94]: 100 | OD value [95]: 90 | OD value [96]: 90 | OD value [97]: 74 | OD value [98]: 96
